Laboratory results reported in patent US20230137139A1, “BIOSYNTHESIS OF CANNABINOIDS AND C[…]” (priority 2020, published 2023).

B1: t861579 (protein)
chain: MGNTTSIAAGRDCLVSAVGPAHVTFQDALLYQTTAVDPYNLNIPVTPAAVTYPQSAEEIAAVVKCASDYDYKVQARSGGHSFGNYGLGGQNGAIVVDMKHFSQFSMDESTFVATIGPGTTLGDLDTELYNAGGRAMAHGICPTIRTGGHLTVGGLGPTARQWGLALDHIEEVEVVLANSSIVRASNTQNQDILFAVKGAAASFGIVTEFKVRTQEAPGLAVQYSFTFNLGSPAQKAKLVKDWQAFIAQENLSWKFYSNLVIFDGQIILEGIFFGSKEEYDELDLEKRFPTSEPGTVLVLTDWLGMIGHALEDTILKLVGDTPTWFYAKSLGFTPDTLIPDSAIDDFFDYIHKTNAGTLAWFVTLSLEGGAINSVSEDATAYGHRDVLFWFQVFVVNPLGPISQTTYDFTNGLYDVLAQAVPESAGHAYLGCPDPKMPDAQRAYWRSNLPRLEDLKGDLDPKDTFHNPQGVQVGP
B2: t861580 (protein)
chain: MGQTPSSPLADCLNAVCNGRDNCVAFPSAPLYQISWVDRYNLDIEVEPIAVTRPETAEDVSGFVKCAAAHNIKVQAKSGGHSYANYGLGGEDGELVVDLRNFQDFSIDTNTWQATFGAGHKLDDVTEKLHKNGKRAISHGTCPGVGIGGHATIGGLGPESRMWGSCLDHVIGVEVVTADGSIVHASDTENSDLFFALKGAGASFGIVTSFVVKTRPEPGSVVQYSYSVTFAKHADLSPVFRQWQELVMDPGLDRRFGTEFTMHELGVIISGTFYGTDEEFQATGIPDRIPKGKISVVFDDWMAVIAKHAEEAALSLSSISSAFTARSLAFRREDKISPETITNLMNYIDSADRGTLVWFLIFDATGGAISDVPTNATAYSHRDKVMYCQGYGVGIPTLNQQTKDFLSGIINTIQSGAGNTLTTYPGYVDPALTNPQESYWGPNIDTLRAIKSQWDPNDIFHNPQSVRPAAVAA
modifications: Monosporascus sp. mg162
B3: t861561 (protein)
chain: MGNTTSIAAGRDCLISAVGGNAAHVAFQDQLLYQATAVDVYNLNIPVTPAAVTYPQSADEVAAVVKCASEYDYKVQARSGGHSFGNYGLGGQNGAIVVDMKHFSQFSMDESTYTATIGPGITLGDLDTELYNAGHRAMAHGICPTIRTGGHLTIGGLGPTARQWGLALDHVEEVEVVLANSSIVRASETQNQDVLFAVKGAAASFGIVTEFKVRTEQAPGLAVQYSYTFNLGTPAEKAKLLKDWQAFIAQEDLTWKFYSNMVIFDGQIILEGIFFGSKEEYDALDLEKRFPTSEPGTLLVLTDWLGMVGHSLEDVILRLVGNTPTWFYAKSLGFTPRTLIPDSAIDRFFDYIHETNAGTLAWFVTLSLEGGAINAVPEDATAYGHRDVLFWVQIFMVNPLGPISQTIYDFADGLYDVLAQAVPESAEHAYLGCPDPKMPDAQRAYWRGNLPRLEELKGEFDPKDTFHNPQGVSVAV
B4: t861574 (protein)
chain: MGNTTSIAGRDCLISALGGNSALAAFPNELLWTADVHEYNLNLPVTPAAITYPETAEQIAGIVKCASDYDYKVQARSGGHSFGNYGLGGADGAVVVDMKHFTQFSMDDETYEAVIGPGTTLNDVDIELYNNGKRAMAHGVCPTIKTGGHFTIGGLGPTARQWGLALDHVEEVEVVLANSSIVRASNTQNQDVFFAVKGAAANFGIVTEFKVRTEPAPGLAVQYSYTFNLGSTAEKAQFVKDWQSFISAKNLTRQFYNNMVIFDGDIILEGLFFGSKEQYDALGLEDHFAPKNPGNILVLTDWLGMVGHALEDTILKLVGNTPTWFYAKSLGFRQDTLIPSAGIDEFFEYIANHTAGTPAWFVTLSLEGGAINDIAEDATAYAHRDVLFWVQLFMVNPLGPISDTTYEFTDGLYDVLARAVPESVGHAYLGCPDPRMEDAQQKYWRTNLPRLQELKEELDPKNTFHHPQGVMPA
B5: t861590 (protein)
chain: MGNTTSIAGRDCLISALGGNSALAAFPNELLWTADVHEYNLNLPVTPAAITYPETAEQIAGVVKCASDYDYKVQARSGGHSFGNYGLGGADGAVVVDMKHFTQFSMDDETYEAVIGPGTTLNDVDIELYNNGKRAMAHGVCPTIKTGGHFTIGGLGPTARQWGLALDHVEEVEVVLANSSIVRASNTQNQDVFFAVKGAAANFGIVTEFKVRTEPAPGLAVQYSYTFNLGSTAEKAQFVKDWQSFISAKNLTRQFYNNMVIFDGDIILEGLFFGSKEQYDALGLEDHFAPKNPGNILVLTDWLGMVGHALEDTILKLVGNTPTWFYAKSLGFRQDTLIPSAGIDEFFEYIANHTAGTPAWFVTLSLEGGAINDIAEDATAYAHRDVLFWVQLFMVNPLGPISDTTYEFTDGLYDVLARAVPESVGHAYLGCPDPRMEDAQQKYWRTNLPRLQELKEELDPKNTFHHPQGVMPA
B6: t861558 (protein)
chain: MGNTTSIAGRDCLISALGGNSALAAFPNELLWTADVHEYNLNLPVTPAAITYPETAEQIAGVVKCASDYDYKVQARSGGHSFGNYGLGGADGAVVVDMKHFTQFSMDDETYEAVIGPGTTLNDVDIELYNNGKRAMAHGVCPTIKTGGHFTIGGLGPTARQWGLALDHVEEVEVVLANSSIVRASNTQNQDVFFAVKGAAANFGIVTEFKVRTEPAPGLAVQYSYTFNLGSTAEKAQFVKDWQSFISAKNLTRQFYNNMVIFDGDIILEGLFFGSKEQYDALGLEDHFAPKNPGNILVLTDWLGMVGHALEDTILKLVGNTPTWFYAKSLGFRQDTLIPSAGIDEFFEYIANHTAGTPAWFVTLSLEGGAINDIAEDATAYAHRDVLFWVQLFMVNPLGPISDTTYEFTDGLYDVLARAVPESVGHAYLGCPDPRMEDAQQKYWRTNLPRLQELKEELDPKNTFHHPQGVMPA
B7: t861571 (protein)
chain: MGNTTSIAGRDCLISALGGNSALAVFPNELLWTADVHEYNLNLPVTPAAITYPETAAQIAGVVKCASDYDYKVQARSGGHSFGNYGLGGADGAVVVDMKHFTQFSMDDETYEAVIGPGTTLNDVDIELYNNGKRAMAHGVCPTIKTGGHFTIGGLGPTARQWGLALDHVEEVEVVLANSSIVRASNTQNQDVFFAVKGAAANFGIVTEFKVRTEPAPGLAVQYSYTFNLGSTAEKAQFVKDWQSFISAKNLTRQFYNNMVIFDGDIILEGLFFGSKEQYDALGLEDHFAPKNPGNILVLTDWLGMVGHALEDTILKLVGNTPTWFYAKSLGFRQDTLIPSAGIDEFFEYIANHTAGTPAWFVTLSLEGGAINDVAEDATAYAHRDVLFWVQLFMVNPVGPISDTTYEFTDGLYDVLARAVPESVGHAYLGCPDPRMEDAQQKYWRTNLPRLQELKEELDPKNTFHHPQGVMPA
B8: t861554 (protein)
chain: MGNTTSIAAGRDCLISAVGAANVAFQDQLLYQATAVQPYNLNIPVTPAAVTYPQSADEIAAVVKCASEYGYKVQARSGGHSFGNYGLGGQDGAIVIEMKHFSQFSMDESTFIATIGPGITLGDLDTDLYNAGHRAMAHGICPTIRTGGHLTVGGLGPTARQWGLALDHVEEVEVVLANSSIVRASDTQNQDLFFAIKGAAASFGIVTEFKVRTEQAPGMAVQYSYTFHLGTSAEKAKFVKDWQAFIAQENLTWKFYTNLVIFDDQIILEGIYFGTKEEYDSLGLEQRFPPTDAGTVLILTDWLAMIGHGLEDTILKLVGDTPTWFYAKSLGFTPRALIPDSAIDEFFDYIHENNPGTLAWFVTLSLEGGAINAVPEDATAYGHRDVLFWFQLFVINPLGPISQTTYGFADGLYDVLAQAVPESASHAYMGCPDPRMPNAQRAYWRSNLPKLEELKGYLDPEDIFHNPQGVVPS
B9: t861585 (protein)
chain: MGNTTSIAGRDCLVSALGGNAGLVAFQNQPLYQTTAVHEYNLNIPVTPAAITYPETAEQIAAVVKCASQYDYKVQARSGGHSFGNYGLGGTDGAVVVDMKYFNQFSMDDQTYEAVIGPGTTLGDVDVELYNNGKRAMAHGVCPTISTGGHFTMGGLGPTARQWGLALDHVEEVEVVLANSSIVRASNTQNQEVFFAVKGAAASFGIVTEFKVRTQPAPGIAVQYSYTFNLGSSAEKAQFIKDWQSFVSAKNLTRQFYTNMVIFDGDIILEGLFFGSKEQYEALRLEERFVPKNPGNILVLTDWLGMVGHALEDTILRLVGNTPTWFYAKSLGFTPDTLIPSSGIDEFFKYIENNKAGTSTWFVTLSLEGGAINDVPADATAYGHRDVLFWVQIFMVSPTGPVSSTTYDFADGLYNVLTKAVPESEGHAYLGCPDPKMANAQQKYWRQNLPRLEELKETLDPKDTFHNPQGILPA
modifications: N- and C-terminal signal peptides

Tested on: CBCA production
Assay: In vivo TS activity assay, Example 4 CBCAS enzymes with and without signal peptides, no pH adjustment
Format: cell-based
Details: strains with (Y) or without (N) N-terminal and C-terminal signal peptides; no pH adjustment at Day 4; S. cerevisiae
Method: An assay to detect TS activity was conducted as follows: each thawed glycerol stock of candidate CBCAS transformants was stamped into a well of YEP+4% dextrose media. Samples were incubated at 30° C. in a shaking incubator for 2 days. A portion of each of the resulting cultures was stamped into a well of YEP+4% galactose+1 mM olivetolic acid (FIG. 1 Structure 6a). Samples were incubated at 20° C. and shaken in a shaking incubator for 4 days. Every 24 hours during those 4 days, 2% galactose and 1 mM olivetolic acid were spiked into the cultures. Sodium citrate buffer adjusted to pH 5.5 was added to each well at a final concentration of 100 mM. Samples were incubated at 20° C. and shaken in a shaking incubator for 2 days. A portion of each of the resulting production cultures was stamped into a well of phosphate buffered saline (PBS). Optical measurements were taken on a plate reader, with absorbance measured at 600 nm and fluorescence at 528 nm with 485 nm excitation. Samples were incubated at 30° C. in a shaking incubator for 2 days. 100% methanol was stamped into the production cultures in half-height deepwell plates. Plates were heat sealed and frozen. Samples were then thawed for 30 min and spun down at 4° C. A portion of the supernatant was stamped into half-area 96 well plates. CBCA, THCA, and CBDA production in the samples was quantified via liquid chromatography-mass spectrometry (LC-MS).
A library of 20 CBCAS enzymes selected from Example 1 and 3 was synthesized, including versions of the CBCAS enzymes with and without the N-terminal MFalpha2 signal peptide (SEQ ID NO: 16) and C-terminal HDEL signal peptide (SEQ ID NO: 17). Each candidate enzyme expression construct was transformed into an S. cerevisiae CEN.PK strain that also expressed a prenyltransferase enzyme capable of catalyzing reaction R^4 in FIG. 2. Strain t861555 expressing the A. niger CBCAS identified in Example 1, carrying both the Mfalpha2 and HDEL signal peptides was included in the library screen as a positive control for enzyme activity. Strain t861565 expressed the same A. niger CBCAS without the Mfalpha2 and HDEL signal peptides.
The strains were screened using the assay described in Example 1 with the following exception: at Day 4 samples were not subjected to a pH adjustment and a further 2 days of incubation at 20° C.

Molecule | Average CBCA [µg/L]
B1 | 57912.84
B2 | 0.00
B3 | 46161.25
B4 | 38142.03
B5 | 55852.93
B6 | 27898.00
B7 | 54271.76
B8 | 5334.71
B9 | 39673.45
